Results: the nanobody polyreactivity screen of Harvey et al. (2022)

Experiment: yeast display, Sf9 membrane polyspecificity reagent, FACS + sequencing; frameworks hold sequencing errors
Method in brief: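 After 36–48 hours of galactose induction, yeast (Saccharomyces cerevisiae BJ5465) displaying a synthetic nanobody library were stained at 4 °C for 1 hour with 10% biotinylated, detergent-solubilized Sf9 membrane reagent. Streptavidin microbeads enriched the stained cells before FACS sorting into low and high (top ~1%) gates on anti-HA and streptavidin fluorescence. Each clone's polyreactivity label reflects its gate of origin.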

Row | Sequence | polyreactivity (PSR sort gate)
1 | QVQLVESGGGLVQAGRSLRLSCAASGRTFYYYAMVWNRQAPGKERELVAAISWRSGSTYYADSVKGRFTISRDNAKNTLYLQMNSLKPEDTAVYYCATSVRFYWFADGYWGQGTQVTVSS | high polyreactivity
2 | QVQLVESGGGLVQAGGSLRLSCAASGSIFVHYAMGGYRQAPGKERELVAAISQRGGSTSYADSVKGRFTISRDNAKNTVYLQMNSLKPEDTAVYYCAAENWIGDYYWGQGTQVTVSS | low polyreactivity
3 | QVQLQESGGGLVQAGGCLSCTASGTIFGQGDMGWYRQAPGKERELVATINDGASTYYADSVKGRFTISRDKAKNTVYLQKNSLKPDDTAGYYCAVFTDITTYFGYWGQGTQLTVSS | low polyreactivity
4 | QVQLVESGGGLVQAGGSLRLSCAASGRIFRYYVMGWYRQAPGKETELVAAISRSGGTTYYADSVKGRFTISRDNAKNTVYLQMNSLKPEDTAVYYCAAVYGRDPGDYWGQGTQVTVSS | high polyreactivity
5 | QVQLVESGGGLVQAGGSLRLSCAASGFIFKDYAMRWYRHSPGKERELVAAITSGVSTNYADSVKGRFTISRDNAKNTVYLQMNSLKPEDTAVSYCNAKARLAGWWLFRLEYWGQGTQVTVSS | low polyreactivity
6 | QVQLVESGGGLVQAGGSLRLSCADSGSIFYPYAKGLYRQDPGKERELVATITSSGSSTYYADSVKGRFTISRDNAKNTVYLQMNSLKPEDTAVYYCAAYRVILYYLYDYWGQGTQVTLSS | low polyreactivity
7 | QVQLVDSRGGLVQAGGSLRLSCAASGIIFFDYTMGWYSQAPGKERELVASITRGGSTYADSVKGRFTISRDNAMNSVYLQMNSLKPEDTAVYYCAATIVDYDAYGYWGQGTQVTVSS | low polyreactivity
8 | QVQLVESGGGLVQAGGSLRLSCAASGRIFRYYAMGWYRPAPGKERELVAGISSRGGSTYYADSVKGRFTISRDNAKNTVYLQMNSLKPEDTAVYYCAASPFHTVTPYGVVGRYDYWGQGTQVTVSS | high polyreactivity
9 | QVQLVESGGGLVQAGGSLRLSCAASGRIFKWNAMGWYRQAPGKERELVAAIRWSGTSTYADSVKGRFTISRDNAKNTVYLQMNSLKPEDTAVYYCAASKRYTVGVRAFGKHDYWGQGTQVTVSS | low polyreactivity
10 | QVQLVESGGGLVQAGGSLRLSCAASGSIFVQNAMGWYRQAPGKERELVAAINSGGSTYYADSVKGRFTISRDNANNTVYLQMNSLKPEDTAVYYCAADHNYYAYSYYYWGQGTQVTVSS | low polyreactivity
11 | QVQLVESGGGLVQAGGSLRLSCAASGFTFVSYAMGWYRQAPGKERELVAAISKRGGSTSYADSVKGRFTISRDNAKNTVYFQMNSLKPEDTAVYYCYNRSYAWSPHVDYWGQGTQVTVSS | high polyreactivity
12 | QVQLVESGGGLVQAGGSLRLSCAASGSTFQDNAMGWYRQAPGKERELVAVITRTGGDTNYADSVKGRFTISRDNAKNTVYLQMNSLKPEDTAVYYCAADNVYVTWFYYWGQGTQVTVSS | low polyreactivity
13 | QVQLVESGGGLVQAGGSLRLSCAASGSTFNRYAMGWYRPAPGKDRELVAAISASGGSTYYADSVKGRFRISRDNAKNTVYLQMNSLKPEDTAVYYCATLHYVGQEHDYWGQGTQVTVSS | low polyreactivity
14 | QVQLVESGGGLVQAGGSLRLSCAASGRIFRIYTMGWYRQAPGKERELVAAITKSGGSTSYADSVKGRFTISRDNAKNTVYLQMNSLKPEDTAVYYCNAKGWSRPPGYDYWGQGTQLTVSS | high polyreactivity
15 | QVQLVESGGGLVQAGGSLRISSAASGRMLYSYAMGWYRQAPGKESEFVAAIRRSGGSTYYADSVKGRFTISRDNAKNTVYLQMNSLKPEDTAFYYCAAGRRYSGSYDYWGQGTQVTVSS | high polyreactivity
16 | QVQLVESGGGLVQAGGSLRLSCAASGIIFADYAMGWSRQAPGKERELVAAISSGDSTYYADSVKGRFTMSLDNAKNTVYLQMNSLKPEDTAVYYSAARLFRNKYRIAKMNYWGQGTQVTVSS | high polyreactivity
17 | QVQLVESGGGLVQAGGSLRLSCAASGFNFTRYAMGWYRQAPGKERELVAAISSGSRTYYADSVKGRFTISRDNAKNTVYLQMISLKPEDTAVYYCAAPVYTYYGHYDSWGQGTQVTVSS | high polyreactivity
18 | QVQLEESGGGLVQAGGSLRLSCAASGSTFYTNAMGWYRQAPGKERELVAAISASVGSTYYADSVKGRFTISRDNAKNTVYLQMNSLKPEDTAVYYCAADVWASRRYDYWGQGTQVTVSS | low polyreactivity
19 | QVQLVESGGGLVQAGGSLRLSCAASGRTLGGNAMGWYRQAPGQERELVAAITNSASTYADSVKGRFTISRDNAKNTVYIQMNSLKPEDTAVYYCTAPDPSDQNGDYWGQGTQVTVSS | low polyreactivity
20 | QVQLVESGGGLVQAGGSLRLSCAASGSIFEWYAMGWYRQAPGKERELVADISSVGSTYYADSVKGRFTISRDNAKNTVYLQMNSLKPEDTAVYYCNTTYIIWYDSWGQGTQVTVSS | low polyreactivity
21 | QVHLVDSGGGLVQAGGSLRLTCSASGFTFRYYTMGWYIQAPGKERELVAVIRSTGSTNYADSVKGRFTISRDNAKNTVYLQMNSLKPEDTAVYYFNAARGWYNPPKYGSIGFDFWGQGTQVTVSS | high polyreactivity
22 | QVQLVESGGGLVQAGGSLRLSCAASGRTFWYYAMVWSRQAPGKERELVAGITFTGGRTYYADSVKGRFTISRDNSKNTVYLQMNSLKPEDTAVYYCAAAGLDVGRKDRDGYWGQGTQVTVSS | low polyreactivity

Row | Sequence | polyreactivity (PSR sort gate)
23 | QVQLVESGGGLVQAGGSLRLSCAASGSTFGYYAMGWYRQAPGKERELVASITWGGGSTYYADSVKGRFTISRDNAKNTVYLQMNSLNPEDTAVYYCAATILGGTWGYGSYTYYYWGQGTQVTVSS | low polyreactivity
24 | QVQLVESGGGLVQAGGSLRLSCAASGRIFLINAMGWYRQAPGKERELVAAITGGGGSTYYADSVKGRFTISRDNAKNTVYLQMNSLKPEDTAVYYCAARGTAERDYWGQGTQVTVSS | high polyreactivity
25 | QVQLVESGGGLVQAGGSLRLSCAASGRIFPGNAMGWYRQAPGKERELVADITSGGSTNYADSVKGRFTISRDNAKNTVYLQMNSLKPEDTAVYYCAVRQIYQTSDHRLQYDYWGQGTQVTVSS | low polyreactivity
26 | QVQLVESGGGLVQAGGSLRLSCAASGSIFSGYAMGWYRQAPGKERELVAAISRGGSTNYADSVKGRFTISRDNAKNTVYLQMNSLKPEDTAVYYCATTPTKYHYAFGYWGQGSQVTVSS | low polyreactivity
27 | QVQLVESGGGLVQAGGSLRISCAASGITFRWYAMGWYRQAPGKERELVAGINSSGGSTNYADSVKGRFTISRDNAKNTVYLQMNSLKPADTAVYYCNADLRSEYDYWGQGTQETVSS | low polyreactivity
28 | QVQLVESGGGLVQAGGSLRLSCAASGRTFDGYAMGWYRPAPGKERELVAAITYTGGSTYYADSVKGRFTISRDNAKNTVYLQMNSLKPEDTAVYYCNALYAVYSDFADDYWGQGTQVTVSS | low polyreactivity
29 | QVQLVDSGGGLVQAGGSLRLSCAASGRIFGYNAMGWSRQAPGKERELVAAISSGGGTNYADSVKGRFTISRDNAKNTVYLQMNSLKPEDTAVYYCAVRRRRYHTYYRGYDYWGQGTQVTVSS | low polyreactivity
30 | QVQLVESGGGLVQAGGTLRLSCAASGFTFLDYAMGWYRQAPGKERELVATINWSDVSTYYADSVKGRFTISRDTAKNTVYLQINSLKPEDTAVYYSAVDVLTVGQSNDHWGQGTQVTVSS | high polyreactivity
31 | QVQLVESGGGLVQAGGSLRLSCADSGNTFYVDTMGWYREAPGKESELVAAIYSTGDRTYYADSLKGRFTISRYKAKNTVYLQMNRLKPEDTAVYYWAARLYRGSLGYYFWGQVTQVTVSS | high polyreactivity
32 | QVQLVESGGGLVQAGGSLRLSCAASGSTFFYYTMGWYRQAPGKERELVASITNRGGNTYYADSVKGRFTISRDNAKTTVYLQMNSLKPEDTAVYYCARRYYWYSGRYDYWGQGTQVTVSS | high polyreactivity
33 | QVQLVESGGGLVQAGGSLSLSCAASGYNFYKNAMGWYRPAPGKERELVAAISTRGGSTYYADSVKGRFTISRDNAQITVYLPMNSLKPEDTAVYYCAASQHRRDWGQGTQVTVSS | high polyreactivity
34 | QVQLVESGGGLVQAGGSLRLSCAASGIIFDYYAMGWYRQAPGKERELVAGISQRGGSTYYADSVKGRFTISRDNAKITVYLQMNSLKPEDTAVYYWAAYTRSCEGHRGGYWGQGTQVTVSS | high polyreactivity
35 | QVRLQESGGGLVQAGGSLRLSCAASGSISLTYYMDWSRQAPCTVREFVATITAGATTNYADSVKGRFTISRDNAKNTVYPQMNSLKPEDTEVYYSAVRAEHQVTLIYLGQGTQVTVSS | low polyreactivity
36 | QVQLVESGGGLVQAGGSLRLSCAASGGIFPFNGMGWYRQAPGKERELVAAISSGGRTYYADSVKGRFTISRDNAKNTVYLQMNSLKPEDTAVYYCAARTSRYYYYPYAFYWGQGTQVTVSS | high polyreactivity
37 | QVQLVESGGGLVQAGGSLRLSCAASVRIFPHKAMGWYIQAPGKERELVAAISSNGGSTYYADSVKGRFTISRDNAKNTVYLQMNSLKPEDTAVYYCAKYRYFAGDGDYWGQGTQVTVSS | low polyreactivity
38 | QVQLVESGGGLVQAGGSLRLSCAASGRTFGRNAMGWYRQAPGKERELVAAISSSGASTYYADSVKGRFTISRDNAKNTVYLQMNSLKPEDTAVYYCAKDVWGSRYAYDYWGQGTQVTVSS | low polyreactivity
39 | QVQLVESGGGLVQAGGSLRLSCAASGLIYYRNAMGWYRQAPGKERELVAAISSDGSTYYADSVKGRFTISRDNPKNTVYLQMNSLKAEDTAVFYCAADYREFDAYGAARTLDFDYWGQGTQVTVSS | low polyreactivity
40 | QVQLVESGGGLVQAGGSLRLSCAASGSIFYGNAMGWYRQAPGKERELVAAISQSGSRTYYADSVKGRFTISRDNAKNTVYLQMNSLKPEDTAVYYCAARARIYNYWGQGTQVTVSS | high polyreactivity
41 | QDQLVESGGGLVQAGGILSLICAASGITFHSNDMGWYRQAPGKERELVAAISWSDDTTYYADSVKGRFTISRDNAKNTVYLQMNSLKPEDTAVYYCAAEFFGSYGYYEYDYWGQGSQVTVSS | high polyreactivity
42 | QVQLVESRGGLVQAGGSLRLSCAASGFTFERYTMGWYRQAPGKERELVAGINYSGGSTYYADSVKGRFTISRDNAKNTVYLQMNSLKPEDTAVYYCAKDFPYSRYRRRYYYWGQGTQVTVSS | high polyreactivity
43 | QVQLVESGAGLVQAGGSLRLSCAASGRTFGSNAMGWYRQAPGKERELVAAITRGGSTNYADSVKGRFTISRDNAKNTVYLQMNSLKPEDTAVYYCAKRSYYRYRYYYWGQGTQVSVSS | high polyreactivity
